Reference: the supplement of paper PMC9170038

Tested on: MS2 coat protein
Assay: apparent KD of MS2 coat protein; designed switch direction (-1 OFF switch, 1 ON switch): -1; higher = weaker reporter binding
Outline: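 Stalled E. coli RNA polymerase transcribed designed RNA switches on Illumina chips, which were then titrated with SNAP-549-labelled MS2 coat protein, doubling from 0.7 or 1.5 nM to 3 µM. Steps lasted from 0.8–1.5 h at the lowest concentration to 10–20 min at the highest. The apparent KD is each design's median over clusters of curve-fitted normalised fluorescence.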

[1] = Eterna round: R95, input ligand: microRNA oligo, concentration not stated
[2] = Eterna round: R95, input ligand: FMN 200 uM
[3] = Eterna round: R95, input ligand: none
[4] = input ligand: microRNA oligo, concentration not stated

Sequence	apparent KD of MS2 coat protein (input ligand: FMN 200 uM) [nM]	apparent KD of MS2 coat protein (input ligand: none) [nM]	apparent KD of MS2 coat protein [1] [nM]	apparent KD of MS2 coat protein [2] [nM]	apparent KD of MS2 coat protein [3] [nM]	apparent KD of MS2 coat protein [4] [nM]
GCUAGUCAUGUCAGGAUAUGCUGUACCUUGGUACAGCAGAAGGGACAUGAGGAUCACCCAUGUGCCUAGCUAGC [JL-BMX4-4.07] (Eterna round: R97, puzzle: Brourd's mod of Exclusion 4)	412	37.7				
UGUUUACAUGAGGAUCACCCAUGUCAGGAUAUGCUCGAUAUAUGGAAACAUAUAUCGAGCAGAAGGGACUAGCG [Jieuxxlusion 4 - Jieux - Exclusion 1] (Eterna round: R97, puzzle: Exclusion 1)	85	39.3				
UGCGAGUAAGGAUAUUCGCGACCGCCCACAAAGGCGGUCGAGAAGAAGGUACUUGAGGAUCACCCAAGUCCUAA [Anremaqu] (Eterna round: R97, puzzle: Exclusion 4)	98.2	22				
GUGAUACAUGAGGAUCACCCAUGUCAGGAUAUGAUACUAUGUACUUCGGUACAUAGUAUCAGAAGGGACAGUGA [Ex1-3: 4] (puzzle: Exclusion 1)			125			
GUGAAGUGAGGAUAUAUGAGAGAGGCUGAACCGGACGAGAAGUAGAAGGCACAUGAGGAUCACCCAUGUAAGGG [JR_Exclu4_Sub024] (puzzle: Exclusion 4)			255	293	372	
GGUCUACAUGAGGAUCACCCAUGUAAGGAUAUCGUCACUGGAGCUUCGGCUCCAGUGACGAGAAGGUGCAUAAU [E1/11-A1] (Eterna round: R97, puzzle: Exclusion 1)	35.4	27.2				
GGAUCACAUGUUAGGAUAUGCAGGUCCUUGGAUCUGCAGAAGGGACAUGAGGAUCACCCAUGUCAUGAAGAUCC [Mat - Exclusion 4 - Eli Mod - D52] (Eterna round: R97, puzzle: Brourd's mod of Exclusion 4)	43.4	21				
AGCUCAAAAGUGAGGAUAUCUAGGGUCAAAUGACCGGAGAAGGCACAUGAGGAUCACCCAUGUAACGCCAUGGA [Ceinveusar] (puzzle: Brourd's mod of Exclusion 4)			12.5			
CCUCCACAUGAGGAUCACCCAUGUCAGGAUAUCGUGUGCGCGUUUUCGGUCUUUCGUGCGAGAAGGGACGUCUG (puzzle: Exclusion 1)			32.6			
ACAUGAGGAUCACCCAUGUUUGUUGGGUACUCUUUUUACAGCAAGGAUAUGCAUGUUUUUUUUACGCAGAAGGUGCUGGACGUC [JR_ExcNG3_Sub068] (Eterna round: R96, puzzle: Exclusion NG 3)	381	653				163
AUGCUCCGUGUAGGAUAUCGCCGCACCACUCGGCGAGAAGGACAUGAGGAUCACCCAUGUAUGUUAUUAUCACGUGUGGCGCGC [Design 43] (Eterna round: R96, puzzle: Exclusion NG 1)	15.1	15.9				13
GUAAAGUGAGGAUAUGGUAAAGUAAUUAUUUAGUAAGUAAUCCAGAAGGCACAUGAGGAUCACCCAUGUAAAUG [Mat - Exclusion 4 - D97] (puzzle: Exclusion 4)			25.7			
UUUUUACAUGAGGAUCACCCAUGUCAGGAUAUCCUUAUAUUUUAUUAUUUUAUUUUUUGGAGAAGGGACUAUUA [My solution] (puzzle: Exclusion 1)			297			
AGGUGUAGAGGAUAUCUAUCCUCCCACAUGAGGAUCACCCAUGUCCUGGUCACCAAGGACGGAGAAGGCUACACCA [Omei Ex5 D19] (Eterna round: R97, puzzle: Exclusion 5)	153	292				
CUGUUUGUAGGAUAUACAUGCGGAACCCUCCUCGUGUGAAGACAUGAGGAUCACCCAUGUAGAAGGACGAGGAG [Angeer] (Eterna round: R97, puzzle: Exclusion 2)	16	16.3				
CAGUACUGAGGAUAUACAUGAGGAUCACCCAUGUGUUCCAGCUAGGAAACUAGCAAGUGUAGAAGGCAGUACUG [Salish 065 m7] (Eterna round: R97, puzzle: Exclusion 3)	1090	410				
AACCAGCGAGGAUAUGCUUGCGCGUGUUCUGGUUGUAAUCGACUUGAGGAUCACCCAAGUAGAAGGCGCUGCCG [EX2 #51] (Eterna round: R97, puzzle: Exclusion 2)	100	50.9				
CGUAAGCUAGGAUAUGCUUUGGGAAAGCAUUCCUUCGAUAAACUUGAGGAUCACCCAAGUAGAAGGAGCUUACC [salish99_ex2_r4_009] (Eterna round: R97, puzzle: Exclusion 2)	11.7	11.5				
AAGAAACAUGAGGAUCACCCAUGUCAGGAUAUGAGAAGAAAGAAGAAGAAAGAAGGAAUCAGAAGGGACAAAGG [Ex 1 M6 Mod of Hoglahoo] (puzzle: Exclusion 1)			51.7	45.5	41.8	
CUGAAGGUGCAGGAUAUCCUGAAUAAGGGUUCAGGAGAAGGGCACACAUGAGGAUCACCCAUGUUAAUACUGCU [Eternabot (L2) Solution 54] (Eterna round: R97, puzzle: Exclusion 6)	29.5	39.1				
UAGAUGGGAGGAUAUGCAUAGAUACAGAUUCAUGUAGUGCUACAUGAGGAUCACCCAUGUAGAAGGCCCGUCUU [JL-ex2-2.20 Mayanne mod] (Eterna round: R96, puzzle: Exclusion 2)	208	24.1				22.1
AGAAAUGUCCAUGGCCGCAAGCUUUUUACUUGUCUUACCACAUGAGGAUCACCCAUGUGACAUGGACUCCUUAUGAU [Sensor v3, turn-off variant 2 (MOD of Oranla v.3)] (puzzle: Sensor v3, turn-off variant 2)			43	17	14.8	
AGUUACUACAAGCUUUGGGACAUGAGGAUCACCCAUGUUCGUCUUAUUGUAGUAGGUACGCUGACGUACCUACUACU [Mat - Sensor v3 - turn-off var 1 - JL Mod - D6] (puzzle: Sensor v3, turn-off variant 1)			42.8	15.9	14.5	
UUUUUAUAUGAAGGAUAUACUUAACAUGAGGAUCACCCAUGUGGUGUUGUGAGUGAGUGAGUUUAGUAGAAGGUCAAUAAUUUU [JMF's solution 9] (Eterna round: R96, puzzle: Exclusion NG 2)	996	286				180
